Test results published in PMC9652321, “Structural basis of human SNAPc recognizing proximal sequence element of snRNA promoter”.

Experiments:
mSNAPc#2 SNAP50-W350A = biological target: T1, mSNAPc#2 SNAP50-W350A (Homo sapiens, UniProt Q5SXM2;Q92966;Q16533;O75971 1-505;1-411;1-268;1-98, W350A); experiment: SPR; EMSA: 100 mM KCl, 25 mM HEPES-K pH 7.6, 12.5 mM MgCl2, 10 uM ZnCl2, 0.1 mM EDTA, 10% glycerol, 3 mM DTT, 0.5 mM PMSF, 50 nM DNA, RT 30 min; SPR: 100 mM KCl, 12.5 mM MgCl2, 10 uM ZnCl2, 0.1 mM EDTA, 0.05% P20, 25 C; conditions: protein: recombinant; tags: as P1; copies: 1;1;1;1
T1 sequence 1: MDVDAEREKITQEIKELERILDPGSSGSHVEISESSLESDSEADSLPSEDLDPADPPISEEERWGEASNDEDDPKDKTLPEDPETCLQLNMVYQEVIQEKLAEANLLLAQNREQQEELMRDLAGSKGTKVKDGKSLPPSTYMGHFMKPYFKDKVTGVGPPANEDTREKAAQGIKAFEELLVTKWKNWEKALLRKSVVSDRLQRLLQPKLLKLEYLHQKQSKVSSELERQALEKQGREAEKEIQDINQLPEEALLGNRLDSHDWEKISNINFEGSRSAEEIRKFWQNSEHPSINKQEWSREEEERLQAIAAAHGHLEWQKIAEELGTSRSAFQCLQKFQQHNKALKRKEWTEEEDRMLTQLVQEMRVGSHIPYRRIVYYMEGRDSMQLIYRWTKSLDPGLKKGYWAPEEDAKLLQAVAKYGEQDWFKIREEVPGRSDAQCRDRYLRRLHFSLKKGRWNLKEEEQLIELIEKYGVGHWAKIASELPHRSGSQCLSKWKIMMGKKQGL
T1 sequence 2: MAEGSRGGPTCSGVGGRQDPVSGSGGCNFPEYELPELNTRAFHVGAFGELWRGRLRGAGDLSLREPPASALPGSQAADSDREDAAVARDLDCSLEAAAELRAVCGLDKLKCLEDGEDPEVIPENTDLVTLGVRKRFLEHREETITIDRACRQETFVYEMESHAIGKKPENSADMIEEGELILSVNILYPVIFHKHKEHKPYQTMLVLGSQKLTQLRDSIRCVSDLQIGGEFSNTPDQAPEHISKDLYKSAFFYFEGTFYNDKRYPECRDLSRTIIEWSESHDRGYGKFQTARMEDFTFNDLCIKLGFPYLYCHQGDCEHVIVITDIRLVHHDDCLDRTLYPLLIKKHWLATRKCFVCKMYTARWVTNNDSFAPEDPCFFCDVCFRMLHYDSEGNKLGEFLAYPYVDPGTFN
T1 sequence 3: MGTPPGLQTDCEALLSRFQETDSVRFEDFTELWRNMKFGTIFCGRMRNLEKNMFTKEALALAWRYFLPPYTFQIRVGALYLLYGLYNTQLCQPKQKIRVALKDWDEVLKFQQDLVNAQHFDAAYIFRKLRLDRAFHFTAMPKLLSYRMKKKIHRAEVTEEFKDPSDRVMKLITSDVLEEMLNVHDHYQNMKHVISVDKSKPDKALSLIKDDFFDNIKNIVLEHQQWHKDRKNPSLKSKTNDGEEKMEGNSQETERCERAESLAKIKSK
T1 sequence 4: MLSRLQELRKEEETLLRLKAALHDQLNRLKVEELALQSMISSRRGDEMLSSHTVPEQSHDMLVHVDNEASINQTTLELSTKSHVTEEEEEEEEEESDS

mSNAPc#2 SNAP50-R151A = biological target: T2, mSNAPc#2 SNAP50-R151A (Homo sapiens, UniProt Q5SXM2;Q92966;Q16533;O75971 1-505;1-411;1-268;1-98, R151A); experiment: as above; conditions: protein: recombinant; tags: as P1; copies: 1;1;1;1
T2 sequence 1: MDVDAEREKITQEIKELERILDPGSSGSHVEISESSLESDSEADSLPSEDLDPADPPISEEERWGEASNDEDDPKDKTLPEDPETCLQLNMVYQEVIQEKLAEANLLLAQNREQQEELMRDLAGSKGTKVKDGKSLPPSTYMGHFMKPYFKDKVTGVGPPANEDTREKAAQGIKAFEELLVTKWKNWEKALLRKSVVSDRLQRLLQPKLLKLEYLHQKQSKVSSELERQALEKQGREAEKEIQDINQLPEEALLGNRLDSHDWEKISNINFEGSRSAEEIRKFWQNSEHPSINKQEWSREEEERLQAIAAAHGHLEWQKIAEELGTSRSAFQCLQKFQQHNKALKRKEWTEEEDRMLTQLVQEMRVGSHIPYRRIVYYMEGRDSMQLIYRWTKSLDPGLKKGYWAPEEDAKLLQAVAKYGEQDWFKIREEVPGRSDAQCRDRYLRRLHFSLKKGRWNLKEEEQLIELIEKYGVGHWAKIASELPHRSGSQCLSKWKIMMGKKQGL
T2 sequence 2: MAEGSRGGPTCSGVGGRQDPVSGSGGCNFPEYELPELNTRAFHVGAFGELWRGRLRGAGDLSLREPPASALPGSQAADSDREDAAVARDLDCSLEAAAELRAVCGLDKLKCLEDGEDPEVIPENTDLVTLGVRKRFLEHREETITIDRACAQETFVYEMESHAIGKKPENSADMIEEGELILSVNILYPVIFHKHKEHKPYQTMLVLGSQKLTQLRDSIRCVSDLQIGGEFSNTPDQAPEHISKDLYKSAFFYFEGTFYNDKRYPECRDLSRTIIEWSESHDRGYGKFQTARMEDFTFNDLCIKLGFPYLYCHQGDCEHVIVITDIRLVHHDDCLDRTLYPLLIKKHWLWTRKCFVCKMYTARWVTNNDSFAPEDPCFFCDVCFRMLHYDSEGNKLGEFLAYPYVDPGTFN
T2 sequence 3: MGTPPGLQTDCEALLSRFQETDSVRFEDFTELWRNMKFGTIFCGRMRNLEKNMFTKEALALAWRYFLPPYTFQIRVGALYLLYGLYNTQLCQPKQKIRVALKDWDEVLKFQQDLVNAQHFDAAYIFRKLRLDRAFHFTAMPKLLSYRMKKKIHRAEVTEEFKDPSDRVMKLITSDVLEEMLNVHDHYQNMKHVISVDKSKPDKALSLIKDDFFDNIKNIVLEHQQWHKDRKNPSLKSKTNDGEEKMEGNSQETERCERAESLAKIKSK
T2 sequence 4: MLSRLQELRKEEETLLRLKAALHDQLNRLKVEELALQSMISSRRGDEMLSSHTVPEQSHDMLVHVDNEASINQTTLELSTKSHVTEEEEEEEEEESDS

B1: 25 bp hU6-1 PSE (SPR) (dsDNA)
DNA 1: TGCTTACCGTAACTTGAAAGTATTT
DNA 2: AAATACTTTCAAGTTACGGTAAGCA
With B1 as the binder, how does the Kd (mSNAPc#2 SNAP50-W350A) read?
The Kd was 887 nM.

What about the Kd (mSNAPc#2 SNAP50-R151A) of the same binder?
Its Kd is 1150 nM.
